Results taken from patent publication US20090202437A1 (UMC UTRECHT HOLDING B V, published 2009).

Target: T1, recombinant human MASP-2 (consisting of the two complement control regions and the serine protease domain) (human, UniProt O00187 298-686)
T1 construct: domain: the two complement control regions and the serine protease domains; also called rMASP-2; MBL associated serine protease-2
Test: size-exclusion chromatography (Superose-6) of 125I-labelled rLPI incubated with rMASP-2

T1 sequence (O00187 298-686 limits assumed): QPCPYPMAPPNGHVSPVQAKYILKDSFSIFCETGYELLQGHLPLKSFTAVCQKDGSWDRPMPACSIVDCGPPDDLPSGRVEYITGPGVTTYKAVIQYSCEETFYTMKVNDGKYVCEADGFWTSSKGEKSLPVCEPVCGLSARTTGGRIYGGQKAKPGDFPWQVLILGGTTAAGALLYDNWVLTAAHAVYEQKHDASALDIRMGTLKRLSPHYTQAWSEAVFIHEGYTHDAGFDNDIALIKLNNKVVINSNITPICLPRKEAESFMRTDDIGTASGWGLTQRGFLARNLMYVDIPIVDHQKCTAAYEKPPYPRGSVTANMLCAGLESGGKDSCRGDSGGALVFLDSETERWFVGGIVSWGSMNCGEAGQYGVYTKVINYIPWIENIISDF

B1: recombinant LPI (Lectin Pathway Inhibitor) of Staphylococcus aureus (other)
chain: STSLPTSNEYQNEKLANELKSLLDELNVNELATGSLNTYYKRTIKISGQKAMYALKSKDFKKMSEAKYQLQKIYNEIDEALKSKY
notes: also called rLPI; 125I-LPI
- binding result: binds
